The target in this experiment is MSL2-FLAG (Drosophila) (UniProt P50534). In words: co-IP.
Sequence of UniProt P50534 (P50534 whole entry): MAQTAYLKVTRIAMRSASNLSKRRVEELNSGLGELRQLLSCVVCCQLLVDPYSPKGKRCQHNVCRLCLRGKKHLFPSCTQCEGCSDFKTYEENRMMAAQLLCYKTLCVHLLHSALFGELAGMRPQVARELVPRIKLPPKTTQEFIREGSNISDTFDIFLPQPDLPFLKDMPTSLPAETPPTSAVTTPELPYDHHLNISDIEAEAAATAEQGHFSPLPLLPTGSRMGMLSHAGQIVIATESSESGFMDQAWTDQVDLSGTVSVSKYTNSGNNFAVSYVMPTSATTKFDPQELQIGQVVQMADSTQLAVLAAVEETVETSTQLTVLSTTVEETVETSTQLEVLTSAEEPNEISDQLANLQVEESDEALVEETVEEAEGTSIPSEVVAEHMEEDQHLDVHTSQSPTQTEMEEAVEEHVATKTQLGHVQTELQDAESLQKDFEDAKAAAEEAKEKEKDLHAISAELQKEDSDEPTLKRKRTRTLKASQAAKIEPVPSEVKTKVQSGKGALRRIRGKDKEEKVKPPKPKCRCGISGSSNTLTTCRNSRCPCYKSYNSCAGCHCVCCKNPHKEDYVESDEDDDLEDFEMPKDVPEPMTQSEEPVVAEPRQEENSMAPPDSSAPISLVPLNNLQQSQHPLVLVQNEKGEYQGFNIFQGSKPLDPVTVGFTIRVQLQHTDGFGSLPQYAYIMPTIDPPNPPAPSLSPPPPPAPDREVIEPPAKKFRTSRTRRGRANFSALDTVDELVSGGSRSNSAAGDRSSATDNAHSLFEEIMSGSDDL

Regarding “CLAMP-ΔZF1-FLAG (from UniProt Q9V9N4 1-561) (natural protein)”, the percent co-immunoprecipitated (bound fraction normalised to input) is less than 1%.

(Values after paper PMC10516644.)
